Where “and” joins values, the source holds several entries; their conditions need not be identical. Equal values may be shown once. Read-outs that look alike come from different tables or passages of the source. One block for each molecule: values may come before it.
Assays:
[1] = target: tTF219 (truncated Tissue Factor, extracellular domain of mature human Tissue Factor) (human)
[2] = target: tTF219 (truncated Tissue Factor, extracellular domain of mature human Tissue Factor) (human); remark: listed apart in the source
H6-N'-cys-tTF219 (human) [3] = target: H6-N'-cys-tTF219 (human)
[4] = target: tTF219 (truncated Tissue Factor, extracellular domain of mature human Tissue Factor) (human); remark: listed apart in the source
[5] = target: H6-N'-cys-tTF219 dimer (human)
[6] = target: H6-tTF221-cys-C' dimer (human)
[7] = target: tTF219 (truncated Tissue Factor, extracellular domain of mature human Tissue Factor) (human); remark: listed apart in the source
H6-N'-cys-tTF219 (human) [8] = target: H6-N'-cys-tTF219 (human); remark: listed apart in the source
[9] = target: IgG-H6-N'-cys-tTF219 (human)
[10] = target: tTF219 (truncated Tissue Factor, extracellular domain of mature human Tissue Factor) (human); remark: listed apart in the source
[11] = target: T1, Factor VIIa (recombinant human) (human); experiment: cell-based or functional assay
T1 chain 1: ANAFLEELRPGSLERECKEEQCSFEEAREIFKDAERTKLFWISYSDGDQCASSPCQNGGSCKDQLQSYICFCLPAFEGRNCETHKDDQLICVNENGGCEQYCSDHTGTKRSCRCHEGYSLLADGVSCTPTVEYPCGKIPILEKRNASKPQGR
T1 chain 2: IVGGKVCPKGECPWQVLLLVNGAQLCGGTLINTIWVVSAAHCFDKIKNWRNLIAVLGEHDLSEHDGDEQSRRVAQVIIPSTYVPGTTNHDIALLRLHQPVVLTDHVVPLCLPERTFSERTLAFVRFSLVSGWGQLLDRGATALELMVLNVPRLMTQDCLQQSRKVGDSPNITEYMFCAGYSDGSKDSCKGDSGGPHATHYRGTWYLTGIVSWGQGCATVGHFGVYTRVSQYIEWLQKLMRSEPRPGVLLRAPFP

clotting time of mouse plasma on A20 cells [1]: 36 s
tTF concentration at which plasma coagulated in 50 seconds [2]: 3 nM
tTF concentration at which plasma coagulated in 50 seconds (H6-N'-cys-tTF219 (human) [3]): 3 nM
tTF concentration at which plasma coagulated in 50 seconds (H6-tTF219-cys-C' (human)): 3 nM
tTF concentration at which plasma coagulated in 50 seconds (H6-tTF220-cys-C' (human)): 500 pM
tTF concentration at which plasma coagulated in 50 seconds (H6-tTF221-cys-C' (human)): 500 pM
tTF concentration at which plasma coagulated in 50 seconds [4]: 500 pM
tTF concentration at which plasma coagulated in 50 seconds (tTF220-cys-C' (human)): 500 pM
tTF concentration at which plasma coagulated in 50 seconds (tTF221-cys-C' (human)): 500 pM
tTF concentration at which plasma coagulated in 50 seconds [5]: 100 pM and 200 pM
tTF concentration at which plasma coagulated in 50 seconds [6]: 4 nM
tTF concentration at which plasma coagulated in 50 seconds [7]: 100 pM and 200 pM
tTF concentration at which plasma coagulated in 50 seconds (H6-N'-cys-tTF219 (human) [8]): 1 nM
coagulation inducing activity against the unconjugated form [9]: 5 fold reduced
tTF concentration at which plasma coagulated in 50 seconds [9]: 5 nM
tTF concentration at which plasma coagulated in 50 seconds [10]: 1 nM
Molecule: B21-2/10H10 bispecific antibody

conversion of Factor X to Xa (chromogenic substrate S-2765, OD 409 nm) (fold less active) (Factor VII in Proplex T): 2
Molecule: IgG-H6-N'-cys-tTF219

coagulation-inducing potency of cell-associated tTF219 with added Factor VIIa [11]: ~100 fold
B1: tTF219 (truncated Tissue Factor, extracellular domain of mature human Tissue Factor) (receptor)
chain: GSGTTNTVAAYNLTWKSTNFKTILEWEPKPVNQVYTVQISTKSGDWKSKCFYTTDTECDLTDEIVKDVKQTYLARVFSYPAGNVESTGSAGEPLYENSPEFTPYLETNLGQPTIQSFEQVGTKVNVTVEDERTLVRRNNTFLSLRDVFGKDLIYTLYYWKSSSSGKKTAKTNTNEFLIDVDKGENYCFSVQAVIPSRTVNRKSTDSPVECMGQEKGEFRE
